Columns and labels:
[1] = CHX chase, western blot; conditions: control: untreated YTS-1 cells
[2] = IP and anti-ubiquitin western blot; conditions: glycan lost; control: untreated YTS-1 cells
[3] = western blot, YTS-1 cells; conditions: control: untreated YTS-1 cells

| Substance | degradation_or_half_life ([1]; glycan lost) | other: ubiquitination [2] | expression_or_secretion ([3]; glycan lost) | degradation_or_half_life ([1]; glycan gained) | expression_or_secretion ([3]; glycan gained) |
| --- | --- | --- | --- | --- | --- |
| C1GalT1 (core1 β-1,3-galactosyltransferase, T-synthase): OSMI-1 | decreases | increases | decreases |  |  |
| C1GalT1 (core1 β-1,3-galactosyltransferase, T-synthase): PugNAc |  |  |  | increases | increases |

Source: paper PMC11399441
